Among the data in article PMC10641220, “Pseudomonas aeruginosa AlgF is a protein–protein interaction mediator required for acetylation of the alginate exopolysaccharide” (The Journal of Biological Chemistry, 2023) are Kd values, retold here.

Test [1] addresses T1, AlgXPp (Pseudomonas putida KT2440, UniProt Q88ND0 25-479).
T1 construct: AlgX of Pseudomonas putida KT2440, codon-optimized synthetic gene of full-length AlgXPp in pET24b; AlgX is a periplasmic protein
T1 sequence (looked up): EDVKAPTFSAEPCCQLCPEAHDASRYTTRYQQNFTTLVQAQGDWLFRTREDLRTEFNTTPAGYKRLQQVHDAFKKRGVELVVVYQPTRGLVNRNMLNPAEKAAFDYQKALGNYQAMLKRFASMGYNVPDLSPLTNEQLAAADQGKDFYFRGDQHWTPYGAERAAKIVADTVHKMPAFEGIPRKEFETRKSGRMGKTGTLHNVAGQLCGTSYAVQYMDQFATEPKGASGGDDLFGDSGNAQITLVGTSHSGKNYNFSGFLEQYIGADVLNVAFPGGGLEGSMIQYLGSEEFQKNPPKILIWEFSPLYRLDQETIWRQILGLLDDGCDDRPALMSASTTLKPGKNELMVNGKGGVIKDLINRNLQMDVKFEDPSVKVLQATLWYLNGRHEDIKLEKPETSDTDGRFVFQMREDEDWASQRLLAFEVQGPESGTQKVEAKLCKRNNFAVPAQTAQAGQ
Briefly: ITC; MicroCal Auto-ITC200, 20 °C, 50 mM Tris pH 7.8, 150 mM NaCl, 2% glycerol, 50 mM arginine, 50 mM glutamic acid; 1.86 mM AlgJ (syringe) into 188 μM AlgF (cell); 4.17 mM AlgF (syringe) into 500 μM AlgX (cell); 2.97 mM AlgJ (syringe) into 170 μM AlgX (cell). To be noted: both partners purified. On the technique in general: In ITC the heat of successive injections is recorded.

Test [2] concerns the target T2, AlgJPp^75-370 (Pseudomonas putida, UniProt Q88ND3 75-370).
T2 construct: AlgJ of Pseudomonas putida, residues 75-370
T2 sequence (looked up): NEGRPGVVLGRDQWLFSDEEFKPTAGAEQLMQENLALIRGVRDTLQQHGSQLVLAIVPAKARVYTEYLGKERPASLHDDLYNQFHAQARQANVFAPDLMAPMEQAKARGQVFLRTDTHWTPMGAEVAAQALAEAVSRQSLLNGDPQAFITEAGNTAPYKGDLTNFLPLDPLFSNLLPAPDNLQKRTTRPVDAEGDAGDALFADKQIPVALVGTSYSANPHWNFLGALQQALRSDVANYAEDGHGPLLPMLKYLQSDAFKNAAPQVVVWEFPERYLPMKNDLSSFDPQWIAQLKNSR
The test is described as above. To be noted: both partners purified.

For orientation: Kd means the free concentration of one partner at which half of the binding sites on the other are occupied at equilibrium, for simple one-to-one binding. The low end stands for higher affinity, the high end for lower affinity.

B1: AlgFPp^29-215 (domain or fragment, Pseudomonas putida KT2440, UniProt Q88ND4 29-215, looked up)
chain: DAALYGPSAPKGSTFVRLYNATSAPAAASVGNTQIKQVGAQASSDFSFLPGGDYTAQVGGKSVPVKLASDKYYTLVNSNSGSPKLIEEPPFKNKQKALVRVQNLSDQQLTLKTADGKTEVVKPVAANGRGEREINPVKVNLALYQGDKKVGDVKPVALERGEAAVLYVTGSGNALSPVWVTRPVASN
notes: the results text calls the construct 30-215; Cloned in pET28a with a 3' stop codon; also called AlgFPp^30-215; source: E. coli BL21 CodonPlus (λDE3), purified (Ni-NTA, Superdex 200 SEC)
As to B1, the Kd in test [1] turned out to be 178 ± 5 µM; in test [2], 86 ± 12 µM.
